Experimental data: patent publication US20240327869, “SYNTHETIC GENETIC ELEMENTS FOR BIOMANUFACTURE” (JANSSEN BIOTECH, INC., published 2024)

Legend:
[1] = biological target: T1, SR21 serine recombinase (Serine Recombinase 21) (Bacillus safensis strain CCMA-560); assay: cell_activity; attP x attB (SEQ 9) inversion reporter P41 in HEK293, fold increase in fLUC over reporter alone, 37 C 48 h; conditions: tags: untagged; expressed from CMV promoter plasmid P175 or Ad5-CMV-SR21
T1 chain: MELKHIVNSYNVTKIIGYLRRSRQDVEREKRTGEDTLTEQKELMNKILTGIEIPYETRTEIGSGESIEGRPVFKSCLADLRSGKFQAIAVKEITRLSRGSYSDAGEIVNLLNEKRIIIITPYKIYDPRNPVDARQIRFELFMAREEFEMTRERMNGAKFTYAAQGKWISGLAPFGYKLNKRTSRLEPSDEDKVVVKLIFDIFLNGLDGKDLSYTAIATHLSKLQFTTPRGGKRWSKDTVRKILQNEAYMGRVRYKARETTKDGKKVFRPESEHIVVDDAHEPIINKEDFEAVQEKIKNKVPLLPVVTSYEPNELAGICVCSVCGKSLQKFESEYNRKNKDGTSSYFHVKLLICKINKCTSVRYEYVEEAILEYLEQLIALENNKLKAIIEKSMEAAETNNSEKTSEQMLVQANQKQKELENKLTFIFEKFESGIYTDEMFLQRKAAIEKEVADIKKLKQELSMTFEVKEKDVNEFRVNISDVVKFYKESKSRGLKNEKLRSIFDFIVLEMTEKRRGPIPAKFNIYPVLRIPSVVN
Protocol: (§1) To measure SR21 recombinase activity in human cells, 75,000 HEK293 cells were plated into each well of 96-well tissue culture plates in 100 μl of high-glucose DMEM+10% Fetal Bovine Serum. The recombinase reporter plasmid (P041) ±the SR21 Recombinase expression plasmid (P175)+deoxynucleotides (to normalize DNA amounts) were complexed with Fugene-HD transfection reagent in OptiMEM medium for 15 minutes at room temperature as shown in Table 1 and transfected into triplicate wells of the plated cells. Plates were incubated at 37° C. for 48 hours.
(§2) Firefly Luciferase (fLUC) and Renilla luciferase (rLUC) was assayed sequentially in transfected wells using the Dual Glo assay kit from Promega. Medium was removed from the transfected wells of the tissue culture plate and 100 μl of a 1:1 mixture of DMEM medium (without phenol red) and the Dual Glo luciferase+ fLUC substrate was added. The plate was incubated at room temperature for 10 minutes. The lysate was transferred to an opaque white 96-well plate. fLUC activity was measured using the Envision multilabel reader. Next, 50 μl per well of the Stop-and-Glo buffer+Renilla substrate was added and the plate was incubated with gentle shaking for 10 minutes. The Renilla luciferase signal was read on the same Envision reader.

[2] = biological target: T1, SR21 serine recombinase (Serine …); assay: cell_activity; attB partner of attP (SEQ 7) in inversion reporter P41, HEK293, fold increase in fLUC over reporter alone; conditions: tags: untagged; expressed from CMV promoter plasmid P175 or Ad5-CMV-SR21
Protocol: as §1, §2

B1: SR21 attP (dsDNA)
DNA 1: AATTAAGTATCATGATAAACTGACAAAGCGGTATATCAAGATACTTAATA
DNA 2: TATTAAGTATCTTGATATACCGCTTTGTCAGTTTATCATGATACTTAATT
activity [1]: 1540 fold

B2: SR21 attB (Fairview) (dsDNA)
DNA 1: CGTCAACATCTCCACTGACAAAGCGGTTTCTCCAACGAAT
DNA 2: ATTCGTTGGAGAAACCGCTTTGTCAGTGGAGATGTTGACG
activity [2]: 1540 fold
